Laboratory results as given in patent US20260167959A1, “APTAZYME-BASED REGULATABLE GENE EXPRESSION SYSTEMS” (REJUVENATE BIO INC, priority 2022, published 2026).

B1: RA326 (nucleic acid)
DNA: GCTGTCACCGGAATACCAGCATCGTCTTGATGCCCTTGGAAGTCCGGTCTGATGAGTCCCTTGAGGACGAAACAGC
modifications: expressed or natural sequence
B2: RA325 (nucleic acid)
DNA: GCGCGTCCTGGATTCGCGGAAACGCGTACATCCAGCTGACGAGTCCCAAATAGGAGGAATACCAGCATCGTCTTGATGCCCTTGGAAGTCCCAAAACGCGC
modifications: expressed or natural sequence
B3: RA329 (nucleic acid)
DNA: GCGCGTCCTGGATTCGCGGAAACGCGTACATCCAGCTGACGAGTCCCAAATAGGACGAAACAGTGATACCAGCATCGTCTTGATGCCCTTGGCAGCACTGCGC
modifications: expressed or natural sequence
B4: RA333 (nucleic acid)
DNA: GCGCGTCCTGGATTCGCGGAAACGCGTACATCCAGCTGACGAGTCCCAAAGAATACCAGCATCGTCTTGATGCCCTTGGAAGTCTATAGGACGAAACGCGC
modifications: expressed or natural sequence
B5: RA311 (nucleic acid)
DNA: GCGCGTCCTGGATTCGCGGAAACGCGTCGAGAATACCAGCATCGTCTTGATGCCCTTGGAAGTCTCGACATCCAGCTGACGAGTCCCAAATAGGACGAAACGCGC
modifications: expressed or natural sequence
B6: RA316 (nucleic acid)
DNA: GCGCGTCCTGGATGGAATACCAGCATCGTCTTGATGCCCTTGGAAGTCCTCGCGGAAACGCGTACATCCAGCTGACGAGTCCCAAATAGGACAAAACGCGC
modifications: expressed or natural sequence
B7: RA321 (nucleic acid)
DNA: GCGCGTCCTGGATTCGCGGAAACGCGTACATCCAGCTAGTGATACCAGCATCGTCTTGATGCCCTTGGCAGCACTGACGAGTCCCAAATAGGACGAAACGCGC
modifications: expressed or natural sequence
B8: RA332 (nucleic acid)
DNA: GCGCGTCCTGGATTCGCGGAAACGCGTACATCCAGCTGACGAGTCGGAATACCAGCATCGTCTTGATGCCCTTGGAAGTCCCCAAATAGGACGAAACGCGC
modifications: expressed or natural sequence
B9: RA320 (nucleic acid)
DNA: GCGCGTCCTGGATTCGCGGAAACGCGTACATCCAGCTGACGAGTAGTGATACCAGCATCGTCTTGATGCCCTTGGCAGCACTCCCAAATAGGACGAAACGCGC
modifications: expressed or natural sequence
B10: RA319 (nucleic acid)
DNA: GCGCGTCCTGGATTCGCGGAAACGCGTACAGAGAATACCAGCATCGTCTTGATGCCCTTGGAAGTCTCTCCAGCTGACGAGTCCCAAATAGGACGAAACGCGC
modifications: expressed or natural sequence
B11: RA313 (nucleic acid)
DNA: GCGCGTCCTGGATTCGCGGAAACGCGTACATCCAGCTGACGAGTCCCAACGGAATACCAGCATCGTCTTGATGCCCTTGGAAGTCCGATAGGACGAAACGCGC
modifications: expressed or natural sequence
B12: RA330 (nucleic acid)
DNA: GCGCGTCCTGGGAGAATACCAGCATCGTCTTGATGCCCTTGGAAGTCTCATTCGCGGAAACGCGTACATCCAGCTGACGAGTCCCAAATAGGACGAAACGCGC
modifications: expressed or natural sequence
B13: RA317 (nucleic acid)
DNA: GCGCGTCCTGGATTCGCGGAAACGCGTACATCCAGCTGACGAGTCCCAAATAGCCGGAATACCAGCATCGTCTTGATGCCCTTGGAAGTCCGGGACGAAACGCGC
modifications: expressed or natural sequence
B14: RA312 (nucleic acid)
DNA: GCGCGTCCTGGATTCGCGGAAACGCGTACATCCAGCTGACGAGGAATACCAGCATCGTCTTGATGCCCTTGGAAGTCCGTCCCAAATAGGACGAAACGCGC
modifications: expressed or natural sequence
B15: RA335 (nucleic acid)
DNA: GCGCGTCCTGGATTCGCGGAAACGCGTAGGAATACCAGCATCGTCTTGATGCCCTTGGAAGTCCCATCCAGCTGACGAGTCCCAAATAGGACGAAACGCGC
modifications: expressed or natural sequence
B16: RA328 (nucleic acid)
DNA: GCGCGTCCTGGATTCGCGGAAACGCGTACATCCAGCTGACAGTGATACCAGCATCGTCTTGATGCCCTTGGCAGCACTGAGTCCCAAATAGGACGAAACGCGC
modifications: expressed or natural sequence
B17: RA334 (nucleic acid)
DNA: GCGCGTCCTGGATTCGCGGAAACGCGTACCCGGAATACCAGCATCGTCTTGATGCCCTTGGAAGTCCGGATCCAGCTGACGAGTCCCAAATAGGACGAAACGCGC
modifications: expressed or natural sequence
B18: RA310 (nucleic acid)
DNA: GCGCGTCCTGGATTCGCGGAAACGCGTACATCCAGCTGACGAGTCCCAAATAGAATACCAGCATCGTCTTGATGCCCTTGGAAGTCTAGGACGAAACGCGC
modifications: expressed or natural sequence
B19: RA314 (nucleic acid)
DNA: GCGCGTCCTGGATTCGCGGAAACGCGTACATCCAGCTGACGAGTCCCAAATAGGGAATACCAGCATCGTCTTGATGCCCTTGGAAGTCCGACGAAACGCGC
modifications: expressed or natural sequence
B20: RA318 (nucleic acid)
DNA: GCGGAATACCAGCATCGTCTTGATGCCCTTGGAAGTCCGCGCGTCCTGGATTCGCGGAAACGCGTACATCCAGCTGACGAGTCCCAAATAGGACGAAACGCGC
modifications: expressed or natural sequence
B21: RA315 (nucleic acid)
DNA: GCGCGTCCTGGATTCGCGGAAACGCGTACATCCAGCTGACGAGTCCCAAATAGGACGAACGAGAATACCAGCATCGTCTTGATGCCCTTGGAAGTCTCGACGCGC
modifications: expressed or natural sequence
B22: RA309 (nucleic acid)
DNA: GCGCGAGAATACCAGCATCGTCTTGATGCCCTTGGAAGTCTTCCTGGATTCGCGGAAACGCGTACATCCAGCTGACGAGTCCCAAATAGGACGAAACGCGC
modifications: expressed or natural sequence
B23: RA322 (nucleic acid)
DNA: GCGCGTCCTGGATTCGCGGAGAATACCAGCATCGTCTTGATGCCCTTGGAAGTCTAAACGCGTACATCCAGCTGACGAGTCCCAAATAGGACGAAACGCGC
modifications: expressed or natural sequence
B24: RA324 (nucleic acid)
DNA: GCGCGTCCTGGATTCGCGGAAACCGGAATACCAGCATCGTCTTGATGCCCTTGGAAGTCCGGCGTACATCCAGCTGACGAGTCCCAAATAGGACGAAACGCGC
modifications: expressed or natural sequence
B25: RA331 (nucleic acid)
DNA: GCGCGTCCTGGGAATACCAGCATCGTCTTGATGCCCTTGGAAGTCCGATTCGCGGAAACGCGTACATCCAGCTGACGAGTCCCAAATAGGACGAAACGCGC
modifications: expressed or natural sequence
B26: RA327 (nucleic acid)
DNA: GCGCGTCCTGGATTCGCGGAAACGCGTAGTGATACCAGCATCGTCTTGATGCCCTTGGCAGCACTACATCCAGCTGACGAGTCCCAAATAGGACGAAACGCGC
modifications: expressed or natural sequence
B27: RA323 (nucleic acid)
DNA: GCGCGTCCTGGATTCGCGCGGAATACCAGCATCGTCTTGATGCCCTTGGAAGTCCGGAAACGCGTACATCCAGCTGACGAGTCCCAAATAGGACGAAACGCGC
modifications: expressed or natural sequence
B28: RA032 (nucleic acid)
DNA: GCGCGTCCTGGATTCGCGGAAAAGTGATACCAGCATCGTCTTGATGCCCTTGGCAGCACTCGCGTACATCCAGCTGACGAGTCCCAAATAGGACGAAACGCGC
modifications: expressed or natural sequence
B29: RA031 (nucleic acid)
DNA: GCGCGTCCGAGAATACCAGCATCGTCTTGATGCCCTTGGAAGTCTCTGGATTCGCGGAAACGCGTACATCCAGCTGACGAGTCCCAAATAGGACGAAACGCGC
modifications: expressed or natural sequence

Test system: Renilla luciferase RNA
Test: Barcoded aptazyme variant library screen: un-cleaved Renilla luciferase RNA by barcode read counts, HEK293-T cells
Type: cell-based
Conditions: un-cleaved Renilla luciferase RNA by barcode read counts; with 1 mM theophylline (ON) over without theophylline (OFF); HEK293-T cells; triplicate
How it was run: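 Barcode sequencing of cDNA versus DNA, normalized per aptazyme, gave the un-cleaved Renilla luciferase RNA fraction and fold-change with versus without theophylline (triplicates). Library: T3H48 ribozyme with one of seven theophylline aptamer variants inserted at each position, placed in the Renilla 3′ UTR of a dual-luciferase vector.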

B1 and B2 are the same in “Fold change in RNA expression between the ON state and the OFF state” value (“Fold change” for short): 0.9 for the first, 0.9 for the second.

B3 and B4 are the same in “Fold change” value: 0.9 for the first, 0.9 for the second.

Going from B5 to B6, the “Fold change” value falls from 1.0 to 0.9.

B7 and B8 are the same in “Fold change” value: 0.9 for the first, 0.9 for the second.

B9 and B10 are the same in “Fold change” value: 0.9 for the first, 0.9 for the second.

Compared with B11, B12 is lower in “Fold change” value: 1.0 for the first, 0.9 for the second.

Going from B13 to B14, the “Fold change” value rises from 0.9 to 1.0.

B15 and B16 are the same in “Fold change” value: 0.9 for the first, 0.9 for the second.

Compared with B17, B18 is higher in “Fold change” value: 0.9 for the first, 1.0 for the second.

First: B19
Second: B20
The “Fold change” value of the first is higher: 1.0 for the first, 0.9 for the second.

B21 and B22 are the same in “Fold change” value: 1.0 for the first, 1.0 for the second.

B23 and B24 are the same in “Fold change” value: 0.9 for the first, 0.9 for the second.

B25 and B26 are the same in “Fold change” value: 0.9 for the first, 0.9 for the second.

With B27 the “Fold change” value was 0.9.

Same assay, conditions: un-cleaved Renilla luciferase RNA, HEK293-T cells cultured with 1 mM theophylline (ON) over without theophylline (OFF); barcode read counts, triplicate

B28 and B29 are the same in “Fold change” value: 2.3 fold for the first, 2.3 fold for the second.
